The nature of data set [1]: mucous adhesive property by SPECT/CT imaging after intranasal injection. As to conditions: 123I-labeled, mice, imaging at 1, 6 and 12 hours.
Description: The selected eluate fraction was diluted with PBS to a final concentration of 500 μg/ml in view of ^123I-activity to be injected per mouse.
The amount of sample injected for SPECT/CT imaging was such that the sample would have a ^123I-activity of about 200 μCi or more in 40 μl upon nasal administration. 40 μl of a sample was injected into each mouse using a tip for nasal administration, and at 1, 6 and 12 hours after injection, SPECT/CT imaging was started. SPECT/CT imaging was performed for about 1 hour, in which CT imaging was performed for 10 minutes, followed by SPECT imaging for 50 minutes. Because the amount of sample injected intranasally is limited to 40 μl or less, the concentration of the sample is necessarily required to ensure ^123I-activity for imaging. ^123I-labeled nanomicelles were centrifuged, filtered (Ultracel, 10 kDa) and concentrated, thereby ensuring activity required for imaging per 40 μl. The sample was injected into both nasal cavities alternately at intervals of a few minutes depending on the size and condition of the mouse.
Data set [2] in a line: immunohistofluorescence imaging after intranasal injection of FITC-labeled OVA. The following applies: mice.

The values that follow come from patent publication US20160193348A1, “MUCOUS LAYER-ADHESIVE POLY-r-[sequence] ACID NA[…] DRUG [sequence] SYSTEM USING SAME” (priority 2013, published 2016).

B1: OVA alone: OVA (ovalbumin, Sigma-Aldrich), model antigen injected alone (protein, UniProt P01012 2-386, looked up)
Ovalbumin: GSIGAASMEFCFDVFKELKVHHANENIFYCPIAIMSALAMVYLGAKDSTRTQINKVVRFDKLPGFGDSIEAQCGTSVNVHSSLRDILNQITKPNDVYSFSLASRLYAEERYPILPEYLQCVKELYRGGLEPINFQTAADQARELINSWVESQTNGIIRNVLQPSSVDSQTAMVLVNAIVFKGLWEKAFKDEDTQAMPFRVTEQESKPVQMMYQIGLFRVASMASEKMKILELPFASGTMSMLVLLPDEVSGLEQLESIINFEKLTEWTSSNVMEERKIKVYLPRMKMEEKYNLTSVLMAMGITDVFSSSANLSGISSAESLKISQAVHAAHAEINEAGREVVGSAEAGVDAASVSEEFRADHPFLFCIKHIATNAVLFFGRCVSP
B1: the “time OVA remained in the nasal cavity (SPECT/CT)” value in data set [1] was at most 6 h. In data set [2], the “time OVA remained in the nasal cavity (immunohistofluorescence)” value was around 1 h.
